In the supplement of paper PMC10567573 one finds protein stability index data, which are given here for 72 sequences.

± gives the standard deviation.

The nature of the data set: protein stability index of a GFP-peptide fusion (GPS, HEK-293T) (PSI 1-6); higher = more stable.
The mark [1] stands for this setting: treatment: DMSO, c terminus: a fixed tail appended.
Setting [2] is: treatment: MLN4924 1 uM, 8 h, c terminus: a fixed tail appended.
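Note: 24-mer peptide tiles fused after GFP, lentivirally expressed, FACS-sorted into six equal bins by GFP/DsRed ratio, decoded by Illumina sequencing, PSI is the read-weighted mean bin number.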

With LFSLMVVNRLTEELGCDEIIDRE [EID1], the protein stability index is, setting by setting: (treatment: DMSO, c terminus: native) 3 ± 1.1; (treatment: MLN4924 1 uM, 8 h, c terminus: native) 2.37 ± 0.48.

On to LGKILSVELGKQKKKYMPYNHQHK [FADS1], for which the protein stability index reads like this: under setting [1], 2.55 ± 0.12; under setting [2], 2.69 ± 0.23.

Consider LGLETLKITDFQLHASTVKRYGLG [CPXM2], for which the protein stability index came to 2.61 ± 0.52 under setting [1] and 2.46 ± 0.12 under setting [2].

As to LGLLFERHWHRPVLMAVSVHSERK [SCNN1D], the protein stability index reads like this: under setting [1], 2.21 ± 0.23; under setting [2], 2.33 ± 0.24.

For the sequence LGRSLTAVFMWPGKDSRWLPSLVL [SLC29A1], the protein stability index was found to be 2.98 ± 0.22 under setting [1] and 2.83 ± 0.47 under setting [2].

For LGVRRPGGAGKEGVRVNNRFELIN [TCF25], the protein stability index under setting [1] worked out at 3.05 ± 0.39 and the protein stability index under setting [2] is 3.12 ± 0.43.

Turning to LHAAAAGGNVECIKLLQSSGADFH [ANKRD44], the protein stability index reads like this: under setting [1], 3.37 ± 0.091; under setting [2], 3.46 ± 0.22.

Consider LHPDRDPGNPSLHSRFVELSEAYR [DNAJC4], for which the protein stability index is, setting by setting: under setting [1], 3.37 ± 0.22; under setting [2], 3.51 ± 0.19.

Regarding LHSKEIVYRDLKPENILLDRDGHI [PRKX], the protein stability index is, setting by setting: under setting [1], 3.7 ± 0.15; under setting [2], 3.75 ± 0.097.

In the case of LHTANLGDSGFLVVRGGEVVHRSD [PPTC7], the protein stability index reads like this: under setting [1], 3.62 ± 0.11; under setting [2], 3.76 ± 0.14.

As to LIQFLEQVHQGIKGMVLDENYNNL [CPN1], the protein stability index is 2.62 ± 0.065 under setting [1] and 3.07 ± 0.61 under setting [2].

LISGVTLDNCVEVGRIANTYNLTE [KLHL13]: the protein stability index runs as follows: under setting [1], 2.89 ± 0.18; under setting [2], 2.77 ± 0.15.

In turn, LKALTRNVNRLNESFRDLQLRLLQ [SCARA5] displayed a protein stability index under setting [1] of 2.37 ± 0.38 and a protein stability index under setting [2] of 2.13 ± 0.46.

As for LKDVKSTLEKCEKVKTMEVTSVSI [TRIM39], the protein stability index is, setting by setting: under setting [1], 3.92 ± 0.16; under setting [2], 3.89 ± 0.17.

In turn, LKNTPRFKRRRVRRRRMETIVFLD [PCMTD2] showed a protein stability index under setting [1] of 2.9 ± 0.19 and a protein stability index under setting [2] of 3.33 ± 0.3.

Regarding LKTADWRVFLFQAPSKEEMLSWIL [PSD2], the protein stability index reads like this: under setting [1], 2.16 ± 0.57; under setting [2], 2.04 ± 0.38.

In the case of LKTSNLPEELRKVFITYSMDTAME [TRAF3IP2], the protein stability index is, setting by setting: under setting [1], 2.41 ± 0.28; under setting [2], 2.43 ± 0.56.

The sequence LKVTGKPDAETLKVMKQPRCGVPD [MMP1] registered a protein stability index under setting [1] of 4.47 ± 0.3 and a protein stability index under setting [2] of 4.49 ± 0.15.

With LLAYLIRNGSERVVTSAREHIYDL [CLINT1], the protein stability index came to 2.85 ± 0.33 under setting [1] and 2.41 ± 0.28 under setting [2].

For the sequence LLSDVRFVLGKGRGAAAAGGPQRI [BTBD1], the protein stability index by setting is: under setting [1], 2.85 ± 0.63; under setting [2], 3.04 ± 0.27.

As for LLTLPRPPLSGALASITETIQVHR [HDAC6], the protein stability index came to 3.12 ± 0.13 under setting [1] and 3.22 ± 0.28 under setting [2].

For the sequence LLTLRNSAQAPPDSISLHQPCNPP [DMRTC1], the protein stability index reads like this: under setting [1], 3.62 ± 0.14; under setting [2], 3.82 ± 0.15.

On to LLYDRGTKFGLFTPGSRIESILMS [CPOX], for which the protein stability index runs as follows: under setting [1], 2.45 ± 0.46; under setting [2], 2.14 ± 0.42.

LNAYMKSLLSLPVWVLMDEDVRIF [NCF4]: the protein stability index reads like this: under setting [1], 3.17 ± 0.86; under setting [2], 2.54 ± 0.46.

LNDQNLCIPASSSFVYGAVPIGAS [GAN]: the protein stability index is, setting by setting: under setting [1], 3.07 ± 0.16; under setting [2], 3.13 ± 0.17.

On to LNLEEDRIQIWFQNRRAKLKRSHR [HESX1], for which the protein stability index stood at 2.86 ± 0.18 under setting [1] and 3.16 ± 0.36 under setting [2].

Take LNVHDLDSEQNGQVTCSILAYLPF [PCDHGA10]: the protein stability index under setting [1] came out at 2.24 ± 0.22 and the protein stability index under setting [2] was found to be 2.19 ± 0.41.

With LPEDDGLEQDLQQVMVSGPNLNET [ARFIP2], the protein stability index turned out to be 5.32 ± 0.32 under setting [1] and 5.43 ± 0.13 under setting [2].

On to LPFRDASFGNCTYNLTILDCLQGI [CDC14A], for which the protein stability index under setting [1] is 2.44 ± 0.59 and the protein stability index under setting [2] is 2.71 ± 0.49.

Take LPKVLQKYWCVTATRVAPERLFGS [ZBED1]: the protein stability index was found to be 2.47 ± 0.65 under setting [1] and 2.2 ± 0.21 under setting [2].

Take LPLETARESPSFKLEPMETERSPG [ZNF263]: the protein stability index was 5.24 ± 0.13 under setting [1] and 5.36 ± 0.13 under setting [2].

For the sequence LPLLESCSVRPDASVSSHRFFGPN [TCF25], the protein stability index was 3.17 ± 0.24 under setting [1] and 3.27 ± 0.26 under setting [2].

The sequence LPNHRAAKRLWKVCVEHHTFFRLL [EPB41L3] displayed a protein stability index under setting [1] of 2.42 ± 0.34 and a protein stability index under setting [2] of 2.36 ± 0.13.

On to LQAESPPVDPDSQADTVHSNPELD [DNAAF3], for which the protein stability index was 5.7 ± 0.17 under setting [1] and 5.63 ± 0.27 under setting [2].

The sequence LQANDVFHKQQWFNCIRAAIAPFQ [NET1] displayed a protein stability index under setting [1] of 2.14 ± 0.26 and a protein stability index under setting [2] of 2.24 ± 0.28.

With LQAQKEELQSLMHQPKGLEEENAQ [PBXIP1], the protein stability index runs as follows: under setting [1], 5.64 ± 0.29; under setting [2], 5.45 ± 0.27.

LQELKKLKNSNYESIQQTARSIAE [PPTC7]: the protein stability index under setting [1] came to 3.9 ± 0.51 and the protein stability index under setting [2] turned out to be 3.76 ± 0.46.

On to LQLGDGGGCTVGVAGEGVRRKGEM [TRIM15], for which the protein stability index was 4.71 ± 0.17 under setting [1] and 3.84 ± 0.45 under setting [2].

Turning to LQMAVLVEKQADTLNVIELNVQKT [STX11], the protein stability index came to 2.59 ± 0.22 under setting [1] and 2.67 ± 0.26 under setting [2].

On to LQQAQAQFRMAQEEARRNRLMRDM [SMG5], for which the protein stability index reads like this: under setting [1], 3.89 ± 0.22; under setting [2], 4.11 ± 0.27.

Sequence LRDPLTSLSHTELEAAEVILEHAH [FCHSD1] registered a protein stability index under setting [1] of 4.29 ± 0.25 and a protein stability index under setting [2] of 4.44 ± 0.32.

As for LREKLRLREAEIARIRDEEAQRAS [LRRC45], the protein stability index is, setting by setting: under setting [1], 4.17 ± 0.56; under setting [2], 4.65 ± 0.18.

With LRENVPRVIMIVTDGRPQDSVAEV [MATN2], the protein stability index turned out to be 3.088 ± 0.005 under setting [1] and 3.09 ± 0.17 under setting [2].

As to LRHSNPRADPLVCATGLLGSAPFL [SPNS1], the protein stability index under setting [1] stood at 2.28 ± 0.31 and the protein stability index under setting [2] came out at 2.75 ± 0.39.

With LRPAKRELRGAEPGRPARLDQLLD [SPSB4], the protein stability index by setting is: under setting [1], 4.12 ± 0.2; under setting [2], 4.03 ± 0.22.

For LRSPNNFLSYYRLTRFLSRVIKCD [CCND1], the protein stability index runs as follows: under setting [1], 2.24 ± 0.42; under setting [2], 2.44 ± 0.2.

Consider LSQRTITVGVYEAAKLLNVDPDNV [GADD45A], for which the protein stability index runs as follows: under setting [1], 3.16 ± 0.29; under setting [2], 3.14 ± 0.19.

On to LSRAYDGTTYLPGIVGLNNIKAND [USP39], for which the protein stability index is, setting by setting: under setting [1], 3.45 ± 0.24; under setting [2], 3.54 ± 0.32.

Consider LSRKLMQLQHEKAELEQHLEQEQE [CCDC6], for which the protein stability index came out at 5.27 ± 0.27 under setting [1] and 5.02 ± 0.2 under setting [2].

Regarding LSRKVAKLVHFLLLKYRAREPVTK [MAGEA6], the protein stability index runs as follows: under setting [1], 2.7 ± 0.37; under setting [2], 2.43 ± 0.67.

As to LSTPDSQSLRCDLIRYICGVVHPS [INTS3], the protein stability index reads like this: under setting [1], 2.29 ± 0.46; under setting [2], 2.29 ± 0.3.

In the case of LTILPTEIETWVREHCPENRERVV [ZNF449], the protein stability index runs as follows: under setting [1], 3.23 ± 0.2; under setting [2], 3.42 ± 0.29.

On to LTSRIKGDWIGLYRHFLKSPNFDG [DENND6A], for which the protein stability index was determined as 2.01 ± 0.31 under setting [1] and 2.37 ± 0.35 under setting [2].

Take LTVEGFQSWMWRGLTFLLPFLFFG [TMEM120A]: the protein stability index worked out at 2.98 ± 0.45 under setting [1] and 2.74 ± 0.035 under setting [2].

On to LTYSTRMSQTVQRMLVAASWACAF [OR3A1], for which the protein stability index was determined as 3.35 ± 0.71 under setting [1] and 3 ± 0.65 under setting [2].

For LVDKETDKRHVEQKIQFKRETASL [PDZK1], the protein stability index by setting is: under setting [1], 4.72 ± 0.63; under setting [2], 4.52 ± 0.92.

With LVEKGVLTTEKQNFLLFDMTTHPL [GOLPH3], the protein stability index under setting [1] was 2.51 ± 0.27 and the protein stability index under setting [2] stood at 2.5 ± 0.3.

LVNPLDPRNADKIRVKIADLGNAC [SRPK2] gave a protein stability index under setting [1] of 2.92 ± 0.18 and a protein stability index under setting [2] of 2.97 ± 0.22.

Regarding LVSDDPRCRLSLDDRVLSSLVRDT [POP5], the protein stability index under setting [1] was determined as 3.44 ± 0.24 and the protein stability index under setting [2] turned out to be 3.68 ± 0.12.

Take LWQFLLELLTDKSCQSFISWTGDG [ETS1]: the protein stability index is 2.96 ± 0.47 under setting [1] and 3.13 ± 0.46 under setting [2].

For LYAVGGHDGSSYLNSVERYDPKTN [KLHL20], the protein stability index by setting is: under setting [1], 3.72 ± 0.22; under setting [2], 3.79 ± 0.23.

Consider LYFHHYFPAMLFSSMLTGILWDTL [POMT2], for which the protein stability index reads like this: under setting [1], 2.84 ± 0.34; under setting [2], 3.21 ± 0.23.

As for LYGTKGNYTSRVWEYSSSIQNSDN [TRIM29], the protein stability index stood at 3.04 ± 0.2 under setting [1] and 2.83 ± 0.26 under setting [2].

Turning to LYVRRVFIMDSCDELIPEYLNFIR [HSP90AB1], the protein stability index runs as follows: under setting [1], 2.37 ± 0.58; under setting [2], 2.68 ± 0.86.

Consider MADERKDEAKAPHWTSAPLTEASA [MAP2], for which the protein stability index stood at 5.22 ± 0.43 under setting [1] and 5.41 ± 0.19 under setting [2].

In turn, MAMPNGFHEDGPQGPGGDEDDDEE [PSD2] displayed a protein stability index under setting [1] of 5.41 ± 0.3 and a protein stability index under setting [2] of 5.47 ± 0.18.

For MDVMPGEGDLPQMEVGSGSRELSL [EID1], the protein stability index by setting is: under setting [1], 4.8 ± 0.2; under setting [2], 5.06 ± 0.17.

In the case of MEIFMEEMREIRRKLRELQLRNCL [BEX3], the protein stability index worked out at 3.28 ± 0.41 under setting [1] and 2.52 ± 0.97 under setting [2].

Take MEKMLAGCFLLILGQIVLLPAEAR [MATN2]: the protein stability index amounted to 3.46 ± 0.56 under setting [1] and 3.01 ± 0.3 under setting [2].

Consider MEKYERIRVVGRGAFGIVHLCLRK [NEK8], for which the protein stability index turned out to be 2.09 ± 0.21 under setting [1] and 2.33 ± 0.27 under setting [2].

For MELKVGDFGLAARLEPLEHRRRTI [PLK2], the protein stability index came out at 3.23 ± 0.16 under setting [1] and 3.43 ± 0.25 under setting [2].

Turning to MEVLPCSRVAHIERTRKPYNNDID [GALNT9], the protein stability index turned out to be 2.46 ± 0.26 under setting [1] and 2.44 ± 0.28 under setting [2].
